Results on 15 variants are retold here after the RNAGym collection of RNA variant scans (doi:10.1093/molbev/msab373).

To fix the notation:
B1: Azoarcus group I ribozyme (parent)
chain: GUGCCUUGCGCCGGGAAACCACGCAAGGGAUGGUGUCAAAUUCGGCGAAACCUAAGCGCCCGCCCGGGCGUAUGGCAACGCCGAGCCAAGCUUCGGCGCCUGCGCCGAUGAAGGUGUAGAGACUAGACGGCACCCACCUAAGGCAAACGCUAUGGUGAAGGCAUAGUCCAGGGAGUGGCGAAAGUCACACAAACCGG

The variants in this data set derive from B1. Kind of data set: reverse-splicing fitness (ratio to wild type); higher = more active; in vitro selection; Mg2+ level not given. In short, it runs like this:
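An in vitro group I ribozyme library with randomized positions was T7-transcribed and gel-purified. In triplicate, 10 pmol RNA in EPPS pH 7.5 was reacted with 50 pmoles of a 30-nt RNA substrate for 1 h at 37 °C across several added MgCl2 levels (1–48 mM), then stopped with EDTA. Products were reverse transcribed from a substrate-complementary primer, PCR-amplified and sequenced (HiSeq 4000). Fitness is a variant's read proportion after selection over that before, normalised to wild type.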
As to GUGCCUUGCGCCGGGAAACCACGCAAGGGAUGGUGUCAAAUUCGGCGAAACCUAAGCGCCCGCCCGGGCGUAUGGCAACGCUGAGCCAAGCUUCGGCGCCUGCGCCGAUGUAGGUGUAGUGACUAGACGGCACCCACCUAAGGCCAACGAUAUGGUGAAGGCAUAGUCGAGGGAGGGGCGAAAGUCACACAAACCGG [C82U A111U A120U A145C C150A C169G U176G], the reverse-splicing fitness is 0.00189.

With GUGCCUUGCGCCGGGAAACCACGCAAGGGAUGGUGUCAAAUUCGGCGAAACCUAAGCGCCCGCCCGGGCGUAUGGCAACGCGGAGCCAAGCUUCGGCGCCUGCGCCGAUGGAGGUGUAGGGACUAGACGGCACCCACCUAAGGCCAACGCUAUGGUGAAGGCAUAGUCGAGGGAGUGGCGAAAGUCACACAAACCGG [C82G A111G A120G A145C C169G], the reverse-splicing fitness worked out at 0.0204.

Consider GUGCCUUGCGCCGGGAAACCACGCAAGGGAUGGUGUCAAAUUCGGCGAAACCUAAGCGCCCGCCCGGGCGUAUGGCAACGCUGAGCCAAGCUUCGGCGCCUGCGCCGAUGCAGGUGUAGUGACUAGACGGCACCCACCUAAGGCUAACGGUAUGGUGAAGGCAUAGUCGAGGGAGUGGCGAAAGUCACACAAACCGG [C82U A111C A120U A145U C150G C169G], for which the reverse-splicing fitness worked out at 0.00306.

Take GUGCCUUGCGCCGGGAAACCACGCAAGGGAUGGUGUCAAAUUCGGCGAAACCUAAGCGCCCGCCCGGGCGUAUGGCAACGCGGAGCCAAGCUUCGGCGCCUGCGCCGAUGUAGGUGUAGGGACUAGACGGCACCCACCUAAGGCGAACGAUAUGGUGAAGGCAUAGUCAAGGGAGAGGCGAAAGUCACACAAACCGG [C82G A111U A120G A145G C150A C169A U176A]: the reverse-splicing fitness was determined as 0.0195.

Consider GUGCCUUGCGCCGGGAAACCACGCAAGGGAUGGUGUCAAAUUCGGCGAAACCUAAGCGCCCGCCCGGGCGUAUGGCAACGCAGAGCCAAGCUUCGGCGCCUGCGCCGAUGAAGGUGUAGGGACUAGACGGCACCCACCUAAGGCUAACGGUAUGGUGAAGGCAUAGUCCAGGGAGCGGCGAAAGUCACACAAACCGG [C82A A120G A145U C150G U176C], for which the reverse-splicing fitness was 0.00721.

With GUGCCUUGCGCCGGGAAACCACGCAAGGGAUGGUGUCAAAUUCGGCGAAACCUAAGCGCCCGCCCGGGCGUAUGGCAACGCUGAGCCAAGCUUCGGCGCCUGCGCCGAUGAAGGUGUAGUGACUAGACGGCACCCACCUAAGGCCAACGUUAUGGUGAAGGCAUAGUCAAGGGAGCGGCGAAAGUCACACAAACCGG [C82U A120U A145C C150U C169A U176C], the reverse-splicing fitness was found to be 0.00189.

Regarding GUGCCUUGCGCCGGGAAACCACGCAAGGGAUGGUGUCAAAUUCGGCGAAACCUAAGCGCCCGCCCGGGCGUAUGGCAACGCGGAGCCAAGCUUCGGCGCCUGCGCCGAUGUAGGUGUAGGGACUAGACGGCACCCACCUAAGGCGAACGGUAUGGUGAAGGCAUAGUCAAGGGAGCGGCGAAAGUCACACAAACCGG [C82G A111U A120G A145G C150G C169A U176C], the reverse-splicing fitness is 0.0126.

Regarding GUGCCUUGCGCCGGGAAACCACGCAAGGGAUGGUGUCAAAUUCGGCGAAACCUAAGCGCCCGCCCGGGCGUAUGGCAACGCGGAGCCAAGCUUCGGCGCCUGCGCCGAUGCAGGUGUAGCGACUAGACGGCACCCACCUAAGGCAAACGAUAUGGUGAAGGCAUAGUCUAGGGAGGGGCGAAAGUCACACAAACCGG [C82G A111C A120C C150A C169U U176G], the reverse-splicing fitness stood at 0.0085.

Turning to GUGCCUUGCGCCGGGAAACCACGCAAGGGAUGGUGUCAAAUUCGGCGAAACCUAAGCGCCCGCCCGGGCGUAUGGCAACGCCGAGCCAAGCUUCGGCGCCUGCGCCGAUGAAGGUGUAGCGACUAGACGGCACCCACCUAAGGCAAACGAUAUGGUGAAGGCAUAGUCCAGGGAGUGGCGAAAGUCACACAAACCGG [A120C C150A], the reverse-splicing fitness was found to be 0.241.

Turning to GUGCCUUGCGCCGGGAAACCACGCAAGGGAUGGUGUCAAAUUCGGCGAAACCUAAGCGCCCGCCCGGGCGUAUGGCAACGCGGAGCCAAGCUUCGGCGCCUGCGCCGAUGAAGGUGUAGCGACUAGACGGCACCCACCUAAGGCAAACGAUAUGGUGAAGGCAUAGUCGAGGGAGAGGCGAAAGUCACACAAACCGG [C82G A120C C150A C169G U176A], the reverse-splicing fitness is 0.0187.

GUGCCUUGCGCCGGGAAACCACGCAAGGGAUGGUGUCAAAUUCGGCGAAACCUAAGCGCCCGCCCGGGCGUAUGGCAACGCUGAGCCAAGCUUCGGCGCCUGCGCCGAUGCAGGUGUAGGGACUAGACGGCACCCACCUAAGGCGAACGUUAUGGUGAAGGCAUAGUCAAGGGAGCGGCGAAAGUCACACAAACCGG [C82U A111C A120G A145G C150U C169A U176C]: the reverse-splicing fitness was 0.0142.

Take GUGCCUUGCGCCGGGAAACCACGCAAGGGAUGGUGUCAAAUUCGGCGAAACCUAAGCGCCCGCCCGGGCGUAUGGCAACGCUGAGCCAAGCUUCGGCGCCUGCGCCGAUGGAGGUGUAGGGACUAGACGGCACCCACCUAAGGCGAACGAUAUGGUGAAGGCAUAGUCCAGGGAGGGGCGAAAGUCACACAAACCGG [C82U A111G A120G A145G C150A U176G]: the reverse-splicing fitness came out at 0.00593.

Consider GUGCCUUGCGCCGGGAAACCACGCAAGGGAUGGUGUCAAAUUCGGCGAAACCUAAGCGCCCGCCCGGGCGUAUGGCAACGCUGAGCCAAGCUUCGGCGCCUGCGCCGAUGGAGGUGUAGCGACUAGACGGCACCCACCUAAGGCGAACGUUAUGGUGAAGGCAUAGUCUAGGGAGCGGCGAAAGUCACACAAACCGG [C82U A111G A120C A145G C150U C169U U176C], for which the reverse-splicing fitness is 0.0127.

Consider GUGCCUUGCGCCGGGAAACCACGCAAGGGAUGGUGUCAAAUUCGGCGAAACCUAAGCGCCCGCCCGGGCGUAUGGCAACGCUGAGCCAAGCUUCGGCGCCUGCGCCGAUGGAGGUGUAGGGACUAGACGGCACCCACCUAAGGCGAACGGUAUGGUGAAGGCAUAGUCUAGGGAGGGGCGAAAGUCACACAAACCGG [C82U A111G A120G A145G C150G C169U U176G], for which the reverse-splicing fitness came out at 0.00643.

Regarding GUGCCUUGCGCCGGGAAACCACGCAAGGGAUGGUGUCAAAUUCGGCGAAACCUAAGCGCCCGCCCGGGCGUAUGGCAACGCUGAGCCAAGCUUCGGCGCCUGCGCCGAUGGAGGUGUAGAGACUAGACGGCACCCACCUAAGGCUAACGGUAUGGUGAAGGCAUAGUCGAGGGAGGGGCGAAAGUCACACAAACCGG [C82U A111G A145U C150G C169G U176G], the reverse-splicing fitness was 0.00515.
